This data set has as its system CCCC(=O)Oc1ccc([N+](=O)[O-])cc1. Briefly: purified protein. As to conditions: 8 nM enzyme, 0.05-1 mM substrate, n-octyl beta-D-glucoside.

By Km is commonly meant the concentration of substrate that gives half-maximal velocity. What is called kcat is the maximal rate divided by the concentration of active sites. On to PA2949 (Pseudomonas aeruginosa PAO1), for which the Michaelis constant (Km) was 170 ± 10 µM and the catalytic constant (kcat) stood at 520.4 ± 31.7 s⁻¹.

For the origin of these results see PMC6450514, “Pseudomonas aeruginosa esterase PA2949, a bacterial homolog of the human membrane esterase ABHD6: expression, purification and crystallization” (Acta Crystallographica. Section F, Structural Biology …, 2019).
